Data published in article PMC3368889 (Immunity, 2012).

Molecular target: the molecule itself
Assay: SEC

B1: C-terminal fragment of human NLRX1 (residues 629-975) (domain or fragment, UniProt Q86UT6 629-975, looked up)
chain: GLLSAHNRAVLAQLGCPIKNLDALENAQAIKKKLGKLGRQVLPPSELLDHLFFHYEFQNQRFSAEVLSSLRQLNLAGVRMTPVKCTVVAAVLGSGRHALDEVNLASCQLDPAGLRTLLPVFLRARKLGLQLNSLGPEACKDLRDLLLHDQCQITTLRLSNNPLTAAGVAVLMEGLAGNTSVTHLSLLHTGLGDEGLELLAAQLDRNRQLQELNVAYNGAGDTAALALARAAREHPSLELLHLYFNELSSEGRQVLRDLGGAAEGGARVVVSLTEGTAVSEYWSVILSEVQRNLNSWDRARVQRHLELLLRDLEDSRGATLNPWRKAQLLRVEGEVRALLEQLGSSGS
stoichiometry N: 2
